Among the data in patent US20240101668A1 are FACS geometric mean fold change over Jurkat parental values, retold here.

Bounds are passed on as bounds.

Experiment [1] addresses huFLT3-M227 stably expressed on Ramos cells (human) (UniProt P36888). Description: FACS on cells.
Experiment [2] addresses huFLT3-T227 stably expressed on Ramos cells (human) (UniProt P36888). The experiment is described as follows: FACS on cells.

B1: Polypeptide No. 230 (scFv, V domains shown)
VH: QVQLVQSGAEVKKPGSSVKVSCKASGGTFSSNAINWVRQAPGQGLEWMGGIIPLFGTTNYAQKFQGRVTITADESTSTAYMELSSLRSEDTAVYYCARVLSGWYGTYYFDYWGQGTLVTVSS
VL: EIVMTQSPATLSVSPGERATLSCRASQSVSADYIAWYQQKPGQAPRLLIYDVSTRASGIPARFSGSGSGTEFTLTISSLQSEDFAVYYCQHYGSSQVTFGQGTKVEIKR
B1: the FACS geometric mean fold change over Jurkat parental in experiment [1] and in experiment [2] was less than 2 fold throughout.

B2: Polypeptide No. 245 (scFv, V domains shown)
VH: QVQLVQSGAEVKKPGSSVKVSCKASGYTFTGFYIHWVRQAPGQGLEWMGGVIPFFSRTIYAQKFQGRVTITADESTSTAYMELSSLRSEDTAVYYCAYGANGHLYGMDAWGQGTTVTVSS
VL: EIVMTQSPATLSVSPGERATLSCRASQSVSSSYLAWYQQKPGQAPRLLIYGASTRATGIPARFSGSGSGTEFTLTISSLQSEDFAVYYCQQYSSSPLTFGQGTKVEIKR
Regarding B2, the FACS geometric mean fold change over Jurkat parental in experiment [2] was less than 2 fold.

B3: Polypeptide No. 286 (scFv, V domains shown)
VH: QVQLVQSGAEVKKPGASVKVSCKASGYTFTSYGISWVRQAPGQGLEWMGWISPNSGVTNYAQKFQGRVTMTRDTSTSTVYMELSSLRSEDTAVYYCVSDDYGAFDYWGQGTLVTVSS
VL: EIVMTQSPATLSVSPGERATLSCRASQSVSSSYLAWYQQKPGQAPRLLIYDVSTRASGIPARFSGSGSGTEFTLTISSLQSEDFAVYYCQQYNNWPYTFGQGTKLEIKR
B3: the FACS geometric mean fold change over Jurkat parental in experiment [2] was less than 2 fold.

B4: Polypeptide No. 263 (scFv, V domains shown)
VH: QVQLVQSGAEVKKPGSSVKVSCKASGGTFSSYAISWVRQAPGQGLEWMGGIIPIVGVANYAQKLQGRVTITADESTSTAYMELSSLRSEDTAVYYCAKDIGGYPSDAFDIWGQGTTVTVSS
VL: EIVMTQSPATLSVSPGERATLSCRASQSVSSSYLAWYQQKPGQAPRLLIYDVSTRATGIPARFSGSGSGTEFTLTISSLQSEDFAVYYCQQYGSSPITFGQGTKVEIKR
As for B4, the FACS geometric mean fold change over Jurkat parental in experiment [2] was less than 2 fold.

B5: Polypeptide No. 201 (scFv, V domains shown)
VH: QVQLVQSGAEVKKPGASVKVSCKASGGTFSSDGISWVRQAPGQGLEWMGWISAYHGHTNYAQKFQGRVTMTRDTSTSTVYMELSSLRSEDTAVYYCARGGKHSGSHRSYYYGMDVWGQGTTVTVSS
VL: DIQMTQSPSSLSASVGDRVTITCRASHNIGNKLAWYQQKPGKAPKLLIYGATTLQSGVPSRFSGSGSGTDFTLTISSLQPEDFATYYCQQANSFPRTFGPGTKVDIKR
Consider B5, for which the FACS geometric mean fold change over Jurkat parental in experiment [1] and in experiment [2] was less than 2 fold each time.

B6: Polypeptide No. 225 (scFv, V domains shown)
VH: QVQLVQSGAEVKKPGSSVKVSCKASGYTLTELSIHWVRQAPGQGLEWMGGIVPMSGTASYAQKFQGRVTITADESTSTAYMELSSLRSEDTAVYYCARRRDGYNSWGQGTLVTVSS
VL: DIVMTQSPDSLAVSLGERATINCKSSQSLLYGSKNYISWYQQKPGQPPKLLIYSSSTRESGVPDRFSGSGSGTDFTLTISSLQAEDVAVYYCQQYYTTPYTFGQGTKVEIKR
Consider B6, for which, in experiment [2], the FACS geometric mean fold change over Jurkat parental was less than 2 fold.

B7: Polypeptide No. 224 (scFv, V domains shown)
VH: QVQLVQSGAEVKKPGSSVKVSCKASGYTFTGYYMHWVRQAPGQGLEWMGVINPIYGTANYALKFQGRVTITADESTSTAYMELSSLRSEDTAVYYCAKAISSGWSNDAFDIWGQGTMVTVSS
VL: EIVMTQSPATLSVSPGERATLSCRASQSVSSDFLAWYQQKPGQAPRLLIYDTSSRASGIPARFSGSGSGTEFTLTISSLQSEDFAVYYCQQYAGPPTFGQGTRLEIKR
Turning to B7, the FACS geometric mean fold change over Jurkat parental in experiment [2] was less than 2 fold.

B8: Polypeptide No. 211 (scFv, V domains shown)
VH: EVQLLESGGGLVQPGGSLRLSCAASGFTFSNHYMSWVRQAPGKGLEWVSAIGAGGGTYYADSVKGRFTISRDNSKNTLYLQMNSLRAEDTAVYYCAKSSGYSYGRRPFDYWGQGTLVTVSS
VL: DIQMTQSPSSLSASVGDRVTITCRASQGISNNLAWYQQKPGKAPKLLIYAASTLHNGVPSRFSGSGSGTDFTLTISSLQPEDFATYYCQQYGRSPKTFGQGTKVEIKR
On to B8, for which the FACS geometric mean fold change over Jurkat parental in experiment [1] and in experiment [2] was less than 2 fold throughout.

B9: Polypeptide No. 220 (scFv, V domains shown)
VH: QVQLVQSGAEVKKPGASVKVSCKASGYTFTGYYMYWVRQAPGQGLEWMGIINPRGGITSYAQRFQGRVTMTRDTSTSTVYMELSSLRSEDTAVYYCARGSTSSGWPNGDMDVWGKGTTVTVSS
VL: DIQMTQSPSSLSASVGDRVTITCRASQGIRNDLGWYQQKPGKAPKLLIYAASSLQSGVPSRFSGSGSGTDFTLTISSLQPEDFATYYCQQANRFPPTFGQGTKVEIKR
B9: the FACS geometric mean fold change over Jurkat parental in experiment [1] was less than 2 fold.

B10: Polypeptide No. 250 (scFv, V domains shown)
VH: QVQLVQSGAEVKKPGSSVKVSCKASGYTLTSFAMHWVRQAPGQGLEWMGRIIPMSGTANYAQKFQGRVTITADESTSTAYMELSSLRSEDTAVYYCASTSPDQYYYGMDVWGQGTTVTVSS
VL: EIVMTQSPATLSVSPGERATLSCRASQSVGSSSLAWYQQKPGQAPRLLIYGASTRATGIPARFSGSGSGTEFTLTISSLQSEDFAVYYCQQYGSSPYTFGQGTKVEIKR
As for B10, the FACS geometric mean fold change over Jurkat parental in experiment [2] is less than 2 fold.

B11: Polypeptide No. 268 (scFv, V domains shown)
VH: QVQLVQSGAEVKKPGSSVKVSCKASGGTFSTYALSWVRQAPGQGLEWMGGVIPVFGTTDYAHKFQGRVTITADESTSTAYMELSSLRSEDTAVYYCASMIIFGAGGWDAYYFQEWGQGTLVTVSS
VL: EIVMTQSPATLSVSPGERATLSCRASQSVNNNQLAWYQQKPGQAPRLLIYDTSSRATGIPARFSGSGSGTEFTLTISSLQSEDFAVYYCQQYDTSPYTFGQGTKVEIKR
Turning to B11, the FACS geometric mean fold change over Jurkat parental in experiment [2] was less than 2 fold.

B12: Polypeptide No. 281 (scFv, V domains shown)
VH: QVQLVQSGAEVKKPGASVKVSCKASGYTFNSYGISWVRQAPGQGLEWMGIINPTGGSTTYAQKFQGRVTMTRDTSTSTVYMELSSLRSEDTAVYYCAKDPFVMDVWGQGTTVTVSS
VL: EIVMTQSPATLSVSPGERATLSCRASQSVSSSYLAWYQQKPGQAPRLLIYDASARAAGIPARFSGSGSGTEFTLTISSLQSEDFAVYYCQQYYSTPYTFGQGTKLEIKR
In the case of B12, in experiment [2], the FACS geometric mean fold change over Jurkat parental is less than 2 fold.

B13: Polypeptide No. 209 (scFv, V domains shown)
VH: EVQLLESGGGLVQPGGSLRLSCAASGFAFSSYVLHWVRQAPGKGLEWVAGIWVDGHNKDYADSVKGRFTISRDNSKNTLYLQMNSLRAEDTAVYYCAREFGAAGSFQHWGQGTLVTVSS
VL: DIQMTQSPSSLSASVGDRVTITCRASQSISTWLAWYQQKPGKAPKLLIYDASKLETGVPSRFSGSGSGTDFTLTISSLQPEDFATYYCQQSYTTPYTFGQGTKVEIKR
Consider B13, for which the FACS geometric mean fold change over Jurkat parental in experiment [1] and in experiment [2] was less than 2 fold in each case.

B14: Polypeptide No. 226 (scFv, V domains shown)
VH: QVQLVQSGAEVKKPGASVKVSCKASGYTFTGYYMHWVRQAPGQGLEWMGIIDPSGGSTSYAQKFQGRVTMTRDTSTSTVYMELSSLRSEDTAVYYCARDRSLLWSGVGGMDVWGQGTTVTVSS
VL: DIQMTQSPSSLSASVGDRVTITCRASQGISNYLAWYQQKPGKAPKLLIYGASNLQSGVPSRFSGSGSGTDFTLTISSLQPEDFATYYCQQSYGTPYTFGQGTKLEIKR
As to B14, the FACS geometric mean fold change over Jurkat parental in experiment [2] was less than 2 fold.

B15: Polypeptide No. 276 (scFv, V domains shown)
VH: QVQLVQSGAEVKKPGSSVKVSCKASGYTFTRFNIHWVRQAPGQGLEWMGWLNPFTGNTGYARKFQGRVTITADESTSTAYMELSSLRSEDTAVYYCASSSSWYGWFDPWGQGTLVTVSS
VL: EIVMTQSPATLSVSPGERATLSCRASQSVSSYLAWYQQKPGQAPRLLIYDTSTRATGIPARFSGSGSGTEFTLTISSLQSEDFAVYYCQQYHSSPWTFGQGTKVEIKR
For the molecule B15, the FACS geometric mean fold change over Jurkat parental in experiment [2] was less than 2 fold.

B16: Polypeptide No. 282 (scFv, V domains shown)
VH: QVQLVQSGAEVKKPGASVKVSCKASGGTFSSYAISWVRQAPGQGLEWMGWMNPNSGDTGYAQKFQGRVTMTRDTSTSTVYMELSSLRSEDTAVYYCARDFEGGGWFDPWGQGTLVTVSS
VL: EIVMTQSPATLSVSPGERATLSCRASRSISDYLAWYQQKPGQAPRLLIYDASSRATGIPARFSGSGSGTEFTLTISSLQSEDFAVYYCQQYYTTPLTFGQGTKVEIKR
Regarding B16, the FACS geometric mean fold change over Jurkat parental in experiment [2] was less than 2 fold.

B17: Polypeptide No. 205 (scFv, V domains shown)
VH: QVQLVQSGAEVKKPGSSVKVSCKASGGSFISHTFSWVRQAPGQGLEWMGGIIPISGTANYAQKFQGRVTITADESTSTAYMELSSLRSEDTAVYYCAKGRGQLVGGYFQHWGQGTLVTVSS
VL: DIVMTQSPLSLPVTPGEPASISCRSSQSLLHSNGYNYLDWYLQKPGQSPQLLIYAASSLQSGVPDRFSGSGSGTDFTLKISRVEAEDVGVYYCMQALQTPLTFGQGTRLEIKR
Consider B17, for which the FACS geometric mean fold change over Jurkat parental in experiment [1] and in experiment [2] was less than 2 fold in each case.

B18: Polypeptide No. 227 (scFv, V domains shown)
VH: QVQLVQSGAEVKKPGSSVKVSCKASGYTLNELFMHWVRQAPGQGLEWVGGIIPMSGTTFYAQTFQGRVTITADESTSTAYMELSSLRSEDTAVYYCAKGVRQYSYGRYYYGMDVWGQGTLVTVSS
VL: DIQMTQSPSSLSASVGDRVTITCRASQSVSSYLNWYQQKPGKAPKLLIYGASNLQSGVPSRFSGSGSGTDFTLTISSLQPEDFATYYCQQSYTTPWTFGQGTRLEIKR
On to B18, for which the FACS geometric mean fold change over Jurkat parental in experiment [1] and in experiment [2] was less than 2 fold each time.

B19: Polypeptide No. 232 (scFv, V domains shown)
VH: QVQLVQSGAEVKKPGASVKVSCKASGYTFTSYGIHWVRQAPGQGLEWMGGIIPIFGTASYAQKFQGRVTMTRDTSTSTVYMELSSLRSEDTAVYYCTRSNGIAAAGTHWYFDLWGRGTLVTVSS
VL: DIQMTQSPSSLSASVGDRVTITCRASQNIANSLNWYQQKPGKAPKLLIYAASSLQSGVPSRFSGSGSGTDFTLTISSLQPEDFATYYCQQYSSYPPTFGPGTKVDIKR
In the case of B19, the FACS geometric mean fold change over Jurkat parental in experiment [1] and in experiment [2] was less than 2 fold in each case.
